Among the data in paper PMC5980749 are percent of total NusG recovered in the ribosomal pellet and stoichiometry N values, retold here.

In the experiment the target is Wild-type E. coli 70S ribosomes, purified from strain MRE600 (E. coli (endogenous in MRE600)) (UniProt P0A7R5). Description: co-sedimentation.

On to “Escherichia coli transcription factor NusG, His-tagged, wild type (from UniProt P0AFG0 1-181) (natural protein)”, for which the percent of total NusG recovered in the ribosomal pellet stood at 19% and the stoichiometry N turned out to be 1 NusG per 70S.

In general, stoichiometry N refers to the number of molecules, sites or subunits per partner or assembly.
